From the supplement of paper PMC9170038

Test system: MS2 coat protein
Experiment: apparent KD of MS2 coat protein; designed switch direction (-1 OFF switch, 1 ON switch): -1; higher = weaker reporter binding
Method in brief: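 The reported apparent KD is a per-design median over clusters, from curve fits of normalised cluster fluorescence. Protein titrations used SNAP-549-labelled MS2 coat protein, doubled from 0.7 or 1.5 nM to 3 µM, in Tris-HCl pH 7.5 buffer with KCl, MgCl2, BSA, DTT, tRNA and Tween-20, with no input, 200 uM small-molecule ligand, or an oligonucleotide input. The RNA switches were transcribed on Illumina chips by stalled E. coli RNA polymerase.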

[1] = Eterna round: R95, input ligand: FMN 200 uM
[2] = Eterna round: R95, input ligand: microRNA oligo, concentration not stated
[3] = Eterna round: R95, input ligand: none
[4] = input ligand: microRNA oligo, concentration not stated

Sequence | apparent KD of MS2 coat protein [1] [nM] | apparent KD of MS2 coat protein [2] [nM] | apparent KD of MS2 coat protein [3] [nM] | apparent KD of MS2 coat protein (input ligand: FMN 200 uM) [nM] | apparent KD of MS2 coat protein (input ligand: none) [nM] | apparent KD of MS2 coat protein [4] [nM]
GGAGAGUCAGGAUAUCGAAGGUAGAGAAGAGGAGAGUGGUACGAGAAGGGACAUGAGGAUCACCCAUGUAGGUG [JR_Exclusion4)Sub011] (puzzle: Exclusion 4) | 457 | 645 | 452 |  |  | 
UUUUUUGUUGUGAGGAUAUCGUAUUUUUUUUGUUACGAGAAGGCACAUGAGGAUCACCCAUGUUUUUUGAUGUU [JR_BMOE4_Sub065] (puzzle: Brourd's mod of Exclusion 4) |  | 28.4 |  |  |  | 
AGAACAUCAGGAUAUCCAUGACACUACAUGAGGAUCACCCAUGUGAAUCUCCUCAAGGCGGGAGAAGGGAUGUUUG [Eternabot (L1) Solution 34] (Eterna round: R97, puzzle: Exclusion 5) |  |  |  | 272 | 86.7 | 
AACGUCUAGGUAGGAUAUCCACCAACAGGUGGAAGGAUAUGGAAACAGAAGGUUCGCCAACAGGCGGAGAAGGACCUACGCGUA [pwkr exNG2 2xF7 2xFMN.25] (Eterna round: R96, puzzle: Exclusion NG 2) |  |  |  | 50.4 | 387 | 162
GUAUAUAGUGUGAGGAUAUGCUGGUCCUUGGAUCAGCAGAAGGCACAUGAGGAUCACCCAUGUAGUUUAUUUUA [Mat - Exclusion 4 - JL Mod - D3] (puzzle: Brourd's mod of Exclusion 4) |  | 25.8 |  |  |  | 
AGUAACUAUCACGAAAGUGAUAGUUACAGCAAGUGAUAAACAUGAGGAUCACCCAUGUCCUCAUUUGCUCGUCUUAU [Sensor 3 - 12] (puzzle: Sensor v3, turn-off variant 2) | 15.1 | 739 | 12.7 |  |  | 
GCGGUACAUGAGGAUCACCCAUGUCAGGAUAUCCGCUGUAACUUAAUAAAUAAGCGGUGGAGAAGGGACUUCGC [-18.24, -17.54 kcal, 30% A] (Eterna round: R97, puzzle: Exclusion 1) |  |  |  | 34.2 | 27.6 | 
AAAGAGCGAGGAUAUACAUGAGGAUCACCCAUGUGAAGAUGCAUGGUCUGAACGUCUGGUAGAAGGCGUAUGAA [Rebierce] (puzzle: Exclusion 3) |  | 119 |  |  |  | 
AGAGAGUCAGGAUAUCGGAGGGCGAGGAGAGGAGAGAGAGACGAGAAGGGACAUGAGGAUCACCCAUGUAGGUG [JR_Exclusion4)Sub018] (puzzle: Exclusion 4) | 197 | 268 | 400 |  |  | 
UUUAUAAUUUCAAUCUUCGCCAACAAACUUACGCUGGCCACAUGAGGAUCACCCAUGUUUUUUGUUCGUUUUAUUCU [Veorenxere] (puzzle: Sensor v3, turn-off variant 2) | 18.8 | 56.4 | 21.9 |  |  | 
UGAGCAUCAGGAUAUACAAGGCGACCGUGAGGUCGAAGGUUACAUGAGGAUCACCCAUGUAGAAGGGAUGUUCU [jl-ex2-4.11] (Eterna round: R97, puzzle: Exclusion 2) |  |  |  | 49.4 | 25.4 | 
UUUUUAGAUGAAGGAUAUACUUAACAUGAGGAUCACCCAUGUGGUGUUGUGAGUGAGUGAGUUUAGUAGAAGGUCAAUGAUUUU [JMF's solution 66] (Eterna round: R96, puzzle: Exclusion NG 2) |  |  |  | 937 | 377 | 246
CCUUUGUCAGGAUAUCGAAAAGGGAGGCCAAAGGCCUCCGGUGAGAAGGGACAUGAGGAUCACCCAUGUGAAAA [Soonbidibe] (puzzle: Exclusion 4) |  | 57.5 |  |  |  | 
UUAGGCUCUGGUUCGUAUUACAUGAGGAUCACCCAUGUGGCCAAGUGAGUUGGGCCGGUCAUGAUUUUGCUCGUUAU [Eternabot (L2) Solution 13] (Eterna round: R97, puzzle: Sensor, turn-off variant 1) |  |  |  | 48.3 | 59.4 | 
ACAAGCUUUUAGAUUUUCAACAUGAGGAUCACCCAUGUUCGUCUUAUGCUCGGGCUUGGGCGGUGUCCGGGUUUGGG [JL TOV1 3.78 sellena mod] (Eterna round: R97, puzzle: Sensor, turn-off variant 1) |  |  |  | 37.1 | 39.2 | 
GCACUGGCAGGAUAUACAUGAGGAUCACCCAUGUGAUCCCUUAGGUACAAAAGUACCAGUAGAAGGGCCUGUGC [Omei Ex3 Model Bachelor's Dilema v50] (Eterna round: R97, puzzle: Exclusion 3) |  |  |  | 315 | 564 | 
UACAUGAGGAUCACCCAUGUUUUGUCGUGUAUGGUAUUUAUCUAGGAUAUCAAUUUGUUUAAUUAUGAGAAGGAGAAUAUUAAU [JMF's solution 70] (Eterna round: R96, puzzle: Exclusion NG 3) |  |  |  | 34.3 | 35.6 | 25.8

Sequence | apparent KD of MS2 coat protein [1] [nM] | apparent KD of MS2 coat protein [2] [nM] | apparent KD of MS2 coat protein [3] [nM] | apparent KD of MS2 coat protein (input ligand: FMN 200 uM) [nM] | apparent KD of MS2 coat protein (input ligand: none) [nM] | apparent KD of MS2 coat protein [4] [nM]
GGGCGGGCAGGAUAUACAUGAGGAUCACCCAUGUAUGUCCAAAGACAUACAUUCUUAUGUAGAAGGGCCCGCCC [Ex 4] (Eterna round: R97, puzzle: Exclusion 3) |  |  |  | 142 | 26.6 | 
UGAGUGGUGCGAGGAUAUACAUGAGGAUCACCCAUGUAAACGUGUGAGGCUUUGCCUCACACGAUGUAGAAGGCGCACUACUCU [Mat - Exclusion NG 2 - Mod of JL - D13] (Eterna round: R96, puzzle: Exclusion NG 2) |  |  |  | 15.6 | 13.6 | 9.36
GCAGCAACUCUAAUCAACUAAACAUGAGGAUCACCCAUGUCUCAGGAUAUGGUCUGGAUUACAGGCCAGAAGGGAGAAAGCUGC [Eli exng3 - 043] (Eterna round: R96, puzzle: Exclusion NG 3) |  |  |  | 16.2 | 12.3 | 11.2
UGUUGUUACGCAGGAUAUGCAUGAGGAUCACCCAUGCAACCACAUUUAACAUGAGGAUCACCCAUGUAGAAGGGCGGGUUAACA [pwkr exNG2 2xF5 1xFMN.1] (Eterna round: R96, puzzle: Exclusion NG 2) |  |  |  | 77.5 | 28 | 20.4
AUAAGGCUAGGAUAUGCAUGUGGCACAGCUCAGAAAAUAAGACAUGAGGAUCACCCAUGUAGAAGGAGCAUGCC [EX2 A.30] (Eterna round: R97, puzzle: Exclusion 2) |  |  |  | 19.4 | 16.2 | 
AGAGUGCUGCGAGGAUAUACAUGAGGAUCACCCAUGUUUUCGUGUGAGGCAAAGCCUCACACGAUGUAGAAGGCGCAGUACUCA [Mat - Exclusion NG 2 - Mod of JL - D36] (Eterna round: R96, puzzle: Exclusion NG 2) |  |  |  | 13.2 | 14.6 | 9.73
AUAAUAAAGGAGGAUAUCGUUACGGAAACGUAACGAGAAGGUCUAACAUGAGGAUCACCCAUGUUCCUCAAAUA [Mat - Exclusion 6 - Eli Mod - D53] (puzzle: Exclusion 6) | 49.9 | 36.4 | 37.4 |  |  | 
CGCAUGUGAGGAUAUUAGUAGUAGUCAGAAAAGACUAUUACUGAGAAGGUACAUGAGGAUCACCCAUGUAUCCG [Mat - Exclusion 4 - Eli Mod - D46] (Eterna round: R97, puzzle: Exclusion 4) |  |  |  | 25.7 | 13.9 | 
GCACUGCGAGGAUAUACAUGAGGAUCACCCAUGUAUCGGUAGUCAAGGUUAAUUUAAGGUAGAAGGCGCGUAUU [JR_Ex3_Sub006] (Eterna round: R97, puzzle: Exclusion 3) |  |  |  | 23.9 | 22.7 | 
AGGAUACGAGGAUAUACGCGGAGACCUCAGGGUCUACAAACACAUGAGGAUCACCCAUGUAGAAGGCGUACCAG [Eternabot (Original) Solution 11] (Eterna round: R97, puzzle: Exclusion 2) |  |  |  | 394 | 42 | 
UAUUUGUCAGGAUAUGAGUCGUAGAACAAUAGUACUACGUCUCAGAAGGGACAUGAGGAUCACCCAUGUGCCUC [Fiskers Ex 4 Super Stable 44 mod 29] (puzzle: Exclusion 4) |  | 25.5 |  |  |  | 
AGUACUAACACGAAAGUGUUAGUACAAUAAGCUUGUGAAACAUGAGGAUCACCCAUGUCCUCAUAAGCUCGUCUUAA [salish99_TOv2_r3_002] (puzzle: Sensor v3, turn-off variant 2) | 12.9 | 379 | 10.8 |  |  | 
GGCGAGCAAGGAUAUGCAGGGUAUCCGACUCGCAGCGGGCGACAUGAGGAUCACCCAUGUAGAAGGUGCACGCG [EX2 A.6] (Eterna round: R97, puzzle: Exclusion 2) |  |  |  | 23.9 | 31 | 
CUCCUGUGAGGAUAUGUAGGCCGCCCGGUCAGCCGAGCGAGACAGAAGGCACAUGAGGAUCACCCAUGUGACUC [EX4 B.13] (Eterna round: R97, puzzle: Exclusion 4) |  |  |  | 42.2 | 16.6 | 
UAGUGGGUACGAAGGAGUUGUAUGAGCGGAGGCUCAGUGACAUGAGGAUCACCCAUGUAGCUUUUUGCUCGUCUUAA [JR_SV3TOV2_Sub038] (puzzle: Sensor v3, turn-off variant 2) | 35.7 | 109 | 32.4 |  |  | 
AAUAAUGGAGGAUAUACAUGAGGAUCACCCAUGUGAAUAAAAUAAAUAAAAUGAUAAAGUAGAAGGCCAAAUAA [JMF's solution 2] (puzzle: Exclusion 3) | 42.7 | 39.9 | 53.6 |  |  | 
